Data on two molecules can be found in US9555076B2, “Neuregulin based methods and compositions for treating cardiovascular diseases” (Zensun (Shanghai) Science & Technology, Co., Ltd., priority 2002, dated 2017).

Several values for one entry are separate records, joined by “and”; a condition that tells them apart may be missing. Identical values can stand only once.

Series [1] concerns toxic myocarditis caused by Adriamycin in rat. Nature of the series: Survival rate, Adriamycin caused toxic myocarditis rat model. The series is classed as in vivo, SD rat. The following applies: Adriamycin 3.3 mg/kg iv once every week × 4, 5 weeks later. The method, then: rhNRG-1β was injected into the tail vein within 24 hours after the first injection of Adriamycin, the injection of rhNRG-1 β was carried out once daily for 10 days. Dosage was adjusted according to the body weight, volume of the drug administered was 0.2 ml/100 g.
Based on the <<Guidance Principle of New Drug Preclinical Experiment>>, 3.3 mg/kg of Adriamycin was injected into the tail vein, once per week for consecutive 4 injections, establishing Adriamycin caused toxic myocarditis rat model.
(§1) rhNRG-1 β was injected into the tail vein within 24 hours after the first injection of Adriamycin. During the experiment, animal survival was dynamically monitored, heart function indexes (maximal rate of pressure increase within left ventricle, […], maximal rate of pressure decrease within left ventricle, −dp/dt, systolic end pressure of left ventricle LVPmax, diastolic end pressure of left ventricle LVPmin) were monitored at the 5th week. Section was made from the heart tissue and pathological changes examined.
Situation of survival was recorded weekly and the survival rate of the various experimental groups was calculated. Survival rate (%)=survival animal number/number of experimental animals×100.

Series [2] shares this test system. Nature of the series: Hemodynamics index, Adriamycin rat model. The series is classed as in vivo, SD rat. To be noted: 5 weeks later. The method, then:
as §1
Hemodynamics index such as carotid artery pressure, intra-ventricular pressure. dp/dt was measured with six lead physiology recorder. Major procedure: separate the right carotid artery, ligate its distal end and block its proximal end with arterial clamps, 20 G arteriovenous indwelling needle was inserted into the carotid artery, took out the medal stylet, loosened the artery clamps, push the plastic trocar further into appropriate depth, indwelled for 10 minutes, observed the wave style recorded by the physiology recorder, after it was stable, then recorded the carotid artery pressure and push the trocar further into the left ventricle, kept in place for 15 minutes, after it was stable, then recorded the dp/dt, −dp/dt, LVPmax and LVPmin.

Series [3] has the same test system. The experiment in a line: Myocardial pathologic scoring, Adriamycin rat model. The series is classed as in vivo, SD rat. The following applies: Adriamycin 3.3 mg/kg iv weekly × 4, 5 weeks later. The method, then:
(§2) Heart was extirpated after thoracotomy (auricle should be reserved), the heart weight was measured after dried with absorbent paper, ratio of heart weight/body weight calculated; outer diameter of the heart was measured at ½ site of the vertically standing heart; medium part of the left ventricle was crosswise cut open, maximal thickness of free wall of the left ventricle measured; the heart was fixed with 10% formaldehyde, paraffin embedded and HE stained, observation of the myocardial structure carried out under optic microscope, give out pathologic score.
Scoring could be performed between grade 1 and grade 2 or between grade 2 and grade 3, e.g. grade 1.5, grade 2.5 etc. 6.3.3.3 Determination of Hemodynamics Index

Series [4] has the same test system. The experiment in a line: Serum troponin T (cTnT) level, Adriamycin rat model. The series is classed as in vivo, SD rat. The following applies: Adriamycin 3.3 mg/kg iv once every week × 4, 5 weeks later. The method, then:
2 ml of arterial blood was withdrawn, serum extracted, frozen and stored at −20° C., determination of serum cTnT content was performed with electrochemistry irradiate method submitted to be carried out by Clinical Laboratory of Zhong Shan Hospital.

Series [5] shares this test system. Nature of the series: Heart size (heart weight/body weight, wall thickness), Adriamycin rat model. The series is classed as in vivo, SD rat. To be noted: Adriamycin 3.3 mg/kg iv once every week × 4, 5 weeks later. The method, then: as §2
The subject of a further series is Rhesus. Nature of the series: Rhesus long-term toxicity study, 3 weeks iv plus 3 weeks convalescence. To be noted: for heart rate in conscious animals (electrocardiography): every drug taken group.
The mark [6] stands for this setting: rat, Adriamycin 3.3 mg/kg iv once every week × 4.
Setting [7] is: survived rat, Adriamycin 3.3 mg/kg iv weekly × 4.

With `COc1cccc2c1C(=O)c1c(O)c3c(c(O)c1C2=O)C[C@@](O)(C(=O)CO)C[C@@H]3O[C@H]1C[C@H](N)[C@H](O)[C@H](C)O1` [Adriamycin, reference compound], the survival rate in series [1] came out at 15%. In series [2] (setting [6]), the LVPmax amounted to 106.1 ± 21.2 mmHg and the dp/dt is given as 2674 ± 446 mmHg/s. In addition, the LVPmin in series [2] (rat, Adriamycin 3.3 mg/kg iv once every week × 4, in mmHg) is given as −10.0 ± 4.7. The “−dp/dt” value in series [2] (rat, Adriamycin 3.3 mg/kg iv once every week × 4, in mmHg/s) was −2141 ± 596. Moreover, in series [2] (setting [7]), the “LVPmax as % of the normal value” is recorded as 58%, the “LVPmin as % of the normal value” was 37%, the “dp/dt as % of the normal value” was found to be 43% and the “−dp/dt as % of the normal value” is 47%. For the same molecule, the relative morbidity rate in series [3] amounted to 100%. Moreover, in series [4], the cTnT is 0.2 ng/mL and 0.205 ± 0.072 ng/mL. In series [5], the Heart weight/body weight is 0.0031 ± 0.0001^, the heart circumference turned out to be 30.6 ± 0.1 mm and the “thickness of left ventricular wall” value is 1.73 ± 0.16^ mm.

B1: rhNRG-1 β: Recombinant human neuregulin fragment of 61 amino acid (SEQ ID NO:4), 3 disulfide bonds, expressed in E. coli (protein, listed as Homo sapiens)
chain: SHLVKCAEKEKTFCVNGGECFMVKDLSNPSRYLCKCPNEFTGDRCQNYVMASFYKAEELYQ
modifications: Human neuregulin beta-2 fragment
As to B1, in the series with Rhesus (7.5, 15, 75 μg/kg/d iv 3 weeks), the bone marrow smear entry is “No significant toxic pathologic changes”; the echocardiogram result was “no significant abnormality in echocardiogram”; the fundus examination result is recorded as “No abnormal changes”; the “hematological, biochemistry examination, urine and fecal testing” value is reported as “no significant toxicological changes”. In addition, the organ weight entry in the series with Rhesus (7.5, 15, 75 μg/kg/d iv 3 weeks) is reported as “No abnormal changes in organ weight”. For the same molecule, the body temperature result with Rhesus (all animals, prior to and after the drug administration) is recorded as “no significant changes of body temperature”. In addition, in the series with Rhesus (drug taken groups), the “site of drug injection” value is “mild paleness, hardening of regional skin and vessels”. Further, the “general symptoms, gastrointestinal” value in the series with Rhesus (each drug taken group, 1 week after the beginning of drug administration) is “Vomiting, nausea and salivation occurred in part of the animals”. Besides, the “heart rate in conscious animals (electrocardiography)” value in the series with Rhesus (3-week of drug administration) is “significant reduction of heart rate”. Besides, the “heart rate in conscious animals (electrocardiography)” value with Rhesus (10-day of drug administration) is “no significant deceleration of heart rate”. In the series with Rhesus (high dosage 75 μg/kg/d iv 3 weeks), the myocardium pathohistology entry is recorded as “could cause vacuole in the cytoplasma of myocardium”. The food ingestion result with Rhesus (high dosage group 75 μg/kg/d) is recorded as “reduced significantly”. In addition, the body weight entry in the series with Rhesus (high dosage group 75 μg/kg/d, self-comparison prior to and after drug) is reported as “lowered markedly”. Besides, the recovery of hydrocephalus result in the series with Rhesus (high dosage group, 3 weeks after drug withdrawal) is “did not recover entirely”. Besides, the “dosage level that did not cause pericardial effusion and hydrocephalus” value in the series with Rhesus (iv daily 3 weeks, 3-week's convalescent period) amounted to 7.5 µg/kg/day.
